Drawing on patent CN114933651A (dated 2022), this text covers Kd for one molecule.

The test addresses SARS-CoV-2RBD-hFc蛋白 (SARS-CoV-2; human).

B1: R14纳米抗体 (alpaca-derived nanobody R14, with C-terminal hexa-His tag) (VHH)
VHH: QVQLQESGGGLVQPGGSLRLSCAVSGFTLDYYAIGWFRQAPGKEREGVSCISSSDGSTSYADSVKGRFTISRDNAKNTVYLQMNSLKPEDTALYYCAATPATYYSGRYYYQCPAGGMDYWGQGTQVTVSS
Turning to B1, the Kd is under 0.1 nM.

As a reminder, the Kd is the free concentration of one partner at which half of the binding sites on the other are occupied at equilibrium, for simple one-to-one binding. A higher Kd goes with a looser complex.
